Source: the supplement of paper PMC10724198
± gives the standard deviation of the averaged measurements.

Test system: Saccharomyces cerevisiae
Assay: protein stability index of tFT-peptide fusion (C-terminal peptide) (PSI (0-1 scale)); higher = more stable (slower turnover)
Conditions: temperature: 30 C
Procedure: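 MPS profiling in S. cerevisiae of the yeast C-terminome library: the last 12 aa of each annotated ORF are fused to the C-terminus of a sfGFP-mCherry timer, after a GGGS linker. Cells are FACS-sorted into 8 mCherry/sfGFP bins and deep-sequenced. PSI runs from 0 (unstable) to 1 (stable); wild type and das1Δ backgrounds, two technical replicates each.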

[1] = genetic background: das1 deletion

Row | Sequence | protein stability index [1] | protein stability index (genetic background: wild type)
1 | RDRLVESCHFTQ [CIN4 C-terminal 12 aa] | 0.722 ± 0.023 | 0.706 ± 0.022
2 | IDNVIISGKDEY [CCT5 C-terminal 12 aa] | 0.7033 ± 0.0056 | 0.6529 ± 0.0048
3 | RRRLTYHRYHPK [YML009C-A C-terminal 12 aa] | 0.731 ± 0.014 | 0.722 ± 0.012
4 | TDVKKFIHELCE [TRP3 C-terminal 12 aa] | 0.69 ± 0.014 | 0.679 ± 0.034
5 | HLCWLRCACDGP [YLR154C-G C-terminal 12 aa] | 0.716 ± 0.0083 | 0.699 ± 0.022
6 | LLMVGVPLLFSS [YPR159C-A C-terminal 12 aa] | 0.6249 ± 0.00071 | 0.6282 ± 0.0051
7 | YSSRRWRLDTHD [RTC4 C-terminal 12 aa] | 0.763 ± 0.034 | 0.752 ± 0.058
8 | KGTFLANLTDLI [SWF1 C-terminal 12 aa] | 0.7347 ± 0.0012 | 0.665 ± 0.014
9 | SDMYDSKRLLYV [YPL035C C-terminal 12 aa] | 0.652 ± 0.033 | 0.537 ± 0.034
10 | LDAEYYIKFASK [ERD1 C-terminal 12 aa] | 0.6942 ± 0.0061 | 0.69 ± 0.024
11 | ETRASCLLSRAF [YJL052C-A C-terminal 12 aa] | 0.6962 ± 0.0034 | 0.698 ± 0.015
12 | TVNYNDKTISGN [VPS30 C-terminal 12 aa] | 0.689 ± 0.022 | 0.692 ± 0.055
13 | PQENHDNKEEQS [HEK2 C-terminal 12 aa] | 0.676 ± 0.019 | 0.688 ± 0.033
14 | ASYIQSREICLV [GNT1 C-terminal 12 aa] | 0.6464 ± 0.006 | 0.5859 ± 0.0036
15 | MDETIAPLVGCL [YEL008W C-terminal 12 aa] | 0.724 ± 0.012 | 0.701 ± 0.038
16 | LSIGQKLTTPLC [SYC1 C-terminal 12 aa] | 0.651 ± 0.015 | 0.656 ± 0.029
17 | VYTSKTQYKFDI [YNR071C C-terminal 12 aa] | 0.6849 ± 0.0021 | 0.694 ± 0.062
18 | TDNTVYQKFLKY [ILV1 C-terminal 12 aa] | 0.674 ± 0.014 | 0.692 ± 0.041
19 | DEKTLDSIGNSL [VCX1 C-terminal 12 aa] | 0.701 ± 0.0096 | 0.696 ± 0.013
20 | TKNLVPGFSDLM [SEC61 C-terminal 12 aa] | 0.708 ± 0.012 | 0.676 ± 0.011
21 | PIAAIKEILDQV [DSF1 C-terminal 12 aa] | 0.666 ± 0.0092 | 0.639 ± 0.03

Row | Sequence | protein stability index [1] | protein stability index (genetic background: wild type)
22 | HLAQMKMEQLLK [APQ12 C-terminal 12 aa] | 0.678 ± 0.015 | 0.67 ± 0.014
23 | LQALIIVQVMFS [YLL059C C-terminal 12 aa] | 0.128 ± 0.025 | 0.157 ± 0.013
24 | KAKFEGKKIKFD [BUD22 C-terminal 12 aa] | 0.678 ± 0.011 | 0.7092 ± 0.0046
25 | RLANIQSFFQRQ [TVP23 C-terminal 12 aa] | 0.7155 ± 0.0018 | 0.726 ± 0.064
26 | AKPKYEKILIDN [RTC2 C-terminal 12 aa] | 0.703 ± 0.011 | 0.666 ± 0.035
27 | SQSKIKAKIRPE [YJL193W C-terminal 12 aa] | 0.7134 ± 0.0044 | 0.666 ± 0.011
28 | LKDEKRGDNVLA [THS1 C-terminal 12 aa] | 0.6983 ± 0.0068 | 0.67 ± 0.018
29 | TSPPEGMEPKHW [SGT1 C-terminal 12 aa] | 0.696 ± 0.013 | 0.687 ± 0.0088
30 | WRKFGINSYSYS [DIA2 C-terminal 12 aa] | 0.734 ± 0.016 | 0.759 ± 0.075
31 | RLLNLQKVIYST [LDB18 C-terminal 12 aa] | 0.662 ± 0.013 | 0.493 ± 0.064
32 | FLIWRKKVSRNK [YOR329W-A C-terminal 12 aa] | 0.73 ± 0.054 | 0.727 ± 0.11
33 | LSATIFLRGFLL [YIM2 C-terminal 12 aa] | 0.675 ± 0.029 | 0.649 ± 0.031
34 | AFTRRRFMNKSL [ARC18 C-terminal 12 aa] | 0.69 ± 0.012 | 0.485 ± 0.034
35 | VGRKPRLPKGKL [YCL002C C-terminal 12 aa] | 0.758 ± 0.021 | 0.842 ± 0.024
36 | IEHVKYDNIVSP [UBC12 C-terminal 12 aa] | 0.6974 ± 0.0012 | 0.675 ± 0.011
37 | AWVPPTEDDSDE [DPH5 C-terminal 12 aa] | 0.698 ± 0.018 | 0.665 ± 0.0093
38 | YVVKGWCDSRFL [GIS3 C-terminal 12 aa] | 0.72 ± 0.01 | 0.701 ± 0.016
39 | EGPVTIILDSDQ [DTD1 C-terminal 12 aa] | 0.701 ± 0.0098 | 0.7015 ± 0.0042
40 | QVVDTIKDVHRC [YBR197C C-terminal 12 aa] | 0.7 ± 0.027 | 0.706 ± 0.021
41 | KSALSKTLGLNK [NHA1 C-terminal 12 aa] | 0.699 ± 0.014 | 0.7038 ± 0.0048
42 | LADHLMEKYLSI [TFC4 C-terminal 12 aa] | 0.701 ± 0.025 | 0.658 ± 0.01

Row | Sequence | protein stability index [1] | protein stability index (genetic background: wild type)
43 | ILGNMEKKKNQD [EPS1 C-terminal 12 aa] | 0.733 ± 0.021 | 0.751 ± 0.013
44 | EKRLQKEIKSIE [IDP1 C-terminal 12 aa] | 0.734 ± 0.012 | 0.673 ± 0.06
45 | SWISKEKRVSEE [HXT2 C-terminal 12 aa] | 0.731 ± 0.032 | 0.809 ± 0.04
46 | EWAEENADNVEW [RPS0A C-terminal 12 aa] | 0.7363 ± 0.0068 | 0.728 ± 0.028
47 | KHGTMQFYWRKT [YOR225W C-terminal 12 aa] | 0.692 ± 0.0073 | 0.386 ± 0.003
48 | DYWRKRGISSVY [ECM38 C-terminal 12 aa] | 0.68703 ± 0.00044 | 0.72719 ± 0.0003
49 | TYNSYTEPEELR [FMP27 C-terminal 12 aa] | 0.692 ± 0.025 | 0.716 ± 0.05
50 | TFLYYYFPLPTN [YPL080C C-terminal 12 aa] | 0.656 ± 0.029 | 0.69 ± 0.028
51 | ATGGKKTTFADE [RPA14 C-terminal 12 aa] | 0.711 ± 0.054 | 0.667 ± 0.036
52 | FGIWNTDMSVWS [YBL081W C-terminal 12 aa] | 0.699 ± 0.017 | 0.7253 ± 0.0045
53 | QFSFKAVTFLLI [YOR314W-A C-terminal 12 aa] | 0.629 ± 0.048 | 0.563 ± 0.052
54 | VGENNYYAESII [COS111 C-terminal 12 aa] | 0.714 ± 0.024 | 0.7022 ± 0.005
55 | LTSMSARIAFDN [AAD14 C-terminal 12 aa] | 0.7219 ± 0.0034 | 0.699 ± 0.024
56 | CMRPANQEIYPL [YLR157W-D C-terminal 12 aa] | 0.704 ± 0.02 | 0.681 ± 0.017
57 | PMIENLRFPNAR [YEH2 C-terminal 12 aa] | 0.688 ± 0.023 | 0.7039 ± 0.0046
58 | DDAVNCNTSNCL [ZRC1 C-terminal 12 aa] | 0.7026 ± 0.002 | 0.698 ± 0.017
59 | TSLEKQINSIKK [NSP1 C-terminal 12 aa] | 0.753 ± 0.036 | 0.70199 ± 0.0005
60 | SIKLTFGFGAVL [AHA1 C-terminal 12 aa] | 0.6981 ± 0.0022 | 0.711 ± 0.0087
61 | LLSLLRVLKQPH [CSS1 C-terminal 12 aa] | 0.675 ± 0.023 | 0.66 ± 0.011
62 | GMLYALYIVLQD [PMP3 C-terminal 12 aa] | 0.301 ± 0.0097 | 0.32 ± 0.0081
63 | VERNHPVITNIS [YCR087W C-terminal 12 aa] | 0.7114 ± 0.0043 | 0.733 ± 0.062

Row | Sequence | protein stability index [1] | protein stability index (genetic background: wild type)
64 | TLKKVTQNFYFD [LMO1 C-terminal 12 aa] | 0.7094 ± 0.0054 | 0.6724 ± 0.0018
65 | RSASNRHVDYFL [PPG1 C-terminal 12 aa] | 0.6933 ± 0.0059 | 0.698 ± 0.033
66 | PKWTDCEGDLTT [DET1 C-terminal 12 aa] | 0.712 ± 0.011 | 0.7387 ± 0.0071
67 | VMLNSVSISLNK [COG5 C-terminal 12 aa] | 0.711 ± 0.014 | 0.6577 ± 0.00017
68 | KLSNWLFGWNDL [ASM4 C-terminal 12 aa] | 0.753 ± 0.019 | 0.746 ± 0.052
69 | PTFLIPLRLCFV [EMA19 C-terminal 12 aa] | 0.329 ± 0.02 | 0.336 ± 0.0072
70 | VAHRENLAFPPR [PRO1 C-terminal 12 aa] | 0.732 ± 0.02 | 0.707 ± 0.012
71 | RHICVGAKLCKF [MCH4 C-terminal 12 aa] | 0.8165 ± 0.0035 | 0.818 ± 0.11
72 | YVTYSGENTFGR [ATG8 C-terminal 12 aa] | 0.703 ± 0.025 | 0.691 ± 0.021
73 | QNNSQGFLREII [TDA7 C-terminal 12 aa] | 0.6961 ± 0.004 | 0.6925 ± 0.0034
74 | YRDDPNQKNYKD [MSS4 C-terminal 12 aa] | 0.6905 ± 0.0037 | 0.749 ± 0.081
75 | SKFIEKFQDIVS [MED1 C-terminal 12 aa] | 0.701 ± 0.014 | 0.712 ± 0.018
76 | VPLIIDSSGSAN [FTH1 C-terminal 12 aa] | 0.718 ± 0.011 | 0.68 ± 0.0077
77 | NASYTKKYVPHP [YPR059C C-terminal 12 aa] | 0.682 ± 0.0097 | 0.703 ± 0.063
78 | EQFTRDFGQEGN [VPS4 C-terminal 12 aa] | 0.7187 ± 0.0015 | 0.671 ± 0.016
79 | NAILNGGSVSGL [YAR066W C-terminal 12 aa] | 0.677 ± 0.0079 | 0.668 ± 0.02
80 | IYRRRKNKIFFW [RCK1 C-terminal 12 aa] | 0.705 ± 0.012 | 0.692 ± 0.045
81 | PEDCKDDKYFVN [LCB2 C-terminal 12 aa] | 0.6832 ± 0.0068 | 0.685 ± 0.04
82 | NSLIFDAFNQIR [CDH1 C-terminal 12 aa] | 0.732 ± 0.029 | 0.736 ± 0.054
